Source: patent US20230056445A1 (published 2023)
Read-outs that look alike come from different tables or passages of the source.

How the values were obtained:
[1] = target: T1, human IL-7Rα (IL-7R) on human PBMCs / monocytes (human, UniProt P16871 21-459); assay: cell-based or functional assay
T1 chain: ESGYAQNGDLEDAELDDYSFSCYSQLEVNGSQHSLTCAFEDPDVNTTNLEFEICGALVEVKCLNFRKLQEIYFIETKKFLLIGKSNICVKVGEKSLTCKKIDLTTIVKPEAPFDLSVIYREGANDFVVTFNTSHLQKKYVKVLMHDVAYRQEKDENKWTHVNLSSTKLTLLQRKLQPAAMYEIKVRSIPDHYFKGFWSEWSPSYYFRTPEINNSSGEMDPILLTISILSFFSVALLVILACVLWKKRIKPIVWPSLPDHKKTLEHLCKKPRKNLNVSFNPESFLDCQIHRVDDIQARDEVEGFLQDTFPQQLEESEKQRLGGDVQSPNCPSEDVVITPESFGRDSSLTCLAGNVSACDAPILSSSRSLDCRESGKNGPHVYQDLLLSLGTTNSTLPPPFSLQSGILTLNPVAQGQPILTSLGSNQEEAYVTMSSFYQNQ

[2] = target: T1, human IL-7Rα (IL-7R) on human PBMCs / …; assay: cell-based or functional assay

B1: V7R-2E9 (VHH, not shown: small tags and cut ends)
VHH: EVQLVESGGGLVQAGGSLRLSCESSISTFSSDAMGWFRQAPGKEREFLAAIGWSGAVTHYSDSVQGRFTISRDNAKNTVYLQMNSLKSEDTGRYYCAEDYDTDVWQYWGQGTQVTVSS
IL-7 induced pSTAT5 in hPBMCs EC50 [1]: 2.86 nM
IL-7 induced pSTAT5 in hPBMCs EC50 [2]: 2.86 nM
